In article PMC4753803 one finds ratio of caspase-8/DR5 in DR5 precipitates, Axl knocked down relative to siNEG data, which are given here for one molecule.

For the assay, the target named is death receptor 5 (DR5) (human (endogenous in MB231)), O14763. The assay is described as follows: co-IP + pull-down. The settings on record: remark: other sources report otherwise.

B1: caspase-8, Q14790 1-479 (enzyme)
chain: MDFSRNLYDIGEQLDSEDLASLKFLSLDYIPQRKQEPIKDALMLFQRLQEKRMLEESNLSFLKELLFRINRLDLLITYLNTRKEEMERELQTPGRAQISAYRVMLYQISEEVSRSELRSFKFLLQEEISKCKLDDDMNLLDIFIEMEKRVILGEGKLDILKRVCAQINKSLLKIINDYEEFSKERSSSLEGSPDEFSNGEELCGVMTISDSPREQDSESQTLDKVYQMKSKPRGYCLIINNHNFAKAREKVPKLHSIRDRNGTHLDAGALTTTFEELHFEIKPHDDCTVEQIYEILKIYQLMDHSNMDCFICCILSHGDKGIIYGTDGQEAPIYELTSQFTGLKCPSLAGKPKVFFIQACQGDNYQKGIPVETDSEEQPYLEMDLSSPQTRYIPDEADFLLGMATVNNCVSYRNPAEGTWYIQSLCQSLRERCPRGDDILTILTEVNYEVSNKDDKKNMGKQMPQPTFTLRKKLVFPSD
For B1, the ratio of caspase-8/DR5 in DR5 precipitates, Axl knocked down relative to siNEG amounted to 1.73 fold.
